Data reported in article PMC7102971 (Nucleic Acids Research, 2020).

Target: the molecule itself
Assay: crystal structure

B1: SFPQ-276-535 (dimerization domain of human SFPQ) (domain or fragment)
chain: EGFKANLSLLRRPGEKTYTQRCRLFVGNLPADITEDEFKRLFAKYGEPGEVFINKGKGFGFIKLESRALAEIAKAELDDTPMRGRQLRVRFATHAAALSVRNLSPYVSNELLEEAFSQFGPIERAVVIVDDRGRSTGKGIVEFASKPAARKAFERCSEGVFLLTTTPRPVIVEPLEQLDDEDGLPEKLAQKNPMYQKERETPPRFAQHGTFEYEYSQRWKSLDEMEKQQREQVEKNMKDAKDKLESEMEDAYHEHQANLL
- binding result: binds
